The DeepSol protein solubility set

Test: soluble on expression in E. coli; label from the status in PepcDB or PDB records

| Sequence | soluble on expression in E. coli |
| --- | --- |
| MKKHTLALCLAAILAPAAHAAEIKVEDLTWKAITFGQSTDMNFGSTILPEKVGVNQVTVNGEAVAAGKLASTFTIESRGGKLANSHEGLTFYYTELPTDVNFTLSADVVLEQLGPETGATPNRQEGAGLMVRDILGAERLVPQPEGHEEFPSASNMVMNLMRSHTRANDGMTNINASFREGVYQPWGTPGNRLSRVDYVEGVPYGTAETYRMTLTRTNDGFKVSYRNGEKFVEQAVKGANANIVEMQNSDSQYVGFFASRNAKMTVSNVDLQLAAADTVDAPKYAAKQGELVFQIASSPRSATKEYPVQARANYSGEFEVLHNDKVVAKQTVTAGELFSQWLTLDSGANQMEVRFTAIDGPNKETQAHRYSVDVVSLPDPMTL | not soluble |
| GYSQYNIHGNQFYNLGIDYAYRWHRFSFQGETAMGKQGSATLNRFQYSPVEGTQLMIVQRYYSYNYWAMFAHSFGEGSAVQNEQGYYLGVETSPFRYWHILASFDLFSFPWKKYRISKPSRGMDGLLQATFTPHNNLTMYLKYRYKQKERDLTGSKENLTLPIFHHQLRYRLNYFYGDVFSCRTTLDYNHFHSQDRAASKGYQVTQMMSSQLPWTRLFADVQGSYFSTDDYDSRVYVSEKGLLYTFYTPSFQGRGFRCAVRLRYEPNEHWMFITKFGETVYLDRNEIGSGNDLILGNKKADVQMQLRIKF | not soluble |
| MGSDKIHHHHHHMTPAAVGQLVRTLEDWLGFPLFHRQTNGKNRLVATELAESVLPDIRAGFDKLTLALEKLKQDSLSGVLNIAVSPAFAEKWLLPRIDHFQKQYPDIDIRLDINLKTVDFLEQKVDVGVRYGQGQWQGLEAVKLMDEEVYPVCSPAFLNEHSFLLTPNDLKNITLIHDLSMEKHQQFPGWQSWLKSVGLNDINISRGMQINSSSAVLQAAMEGHGVALARSVMVQKDIQTGRLIRLFPQINFSSPFSYYLVYRPQYANLPKVKICLDWFFEEIHRI | not soluble |
| MGSDKIHHHHHHMSETYPILIHLGEKLNRVIVGQSQLIQQLLVGLLSGGHIILEGVPGTGKTLLVKVLARLIQADFHRVQLTPDVLPSDITGTNIFDLNNRNFTLKKGPVFTEVLLADEINRTPPKTQAALLEAMEEMQVTLDGESLPLPDLFWVIATQNPLEFEGTYPLPEAQLDRFLFKLVVDYPDQTAEKQMLLNRQAGFAARRSDINSLQPIATVTDILEARQAVKAVKVSESIIDYLLALVRTSRQYPDLALGASPRAAGAWLQTSQAVAWLEGRDFVTPDDIKAVASPLLRHRLILKPEAMLDGLQIDAVIAAVVNQVAVPR | not soluble |
| MSLSPEGVNGNRCSESFPLLEKYRIGKVIGDGNFAVVKECVDRYTGKEFALKIIDKAKCCGKEHLIENEVSILRRVKHPNIIMLVEEMETATDLFLVMELVKGGDLFDAITSSTKYTERDGSAMVYNLANALRYLHSLSIVHRDIKPENLLVCEYPDGTKSLKLGDFGLATVVEGPLYTVCGTPTYVAPEIIAETGYGLKVDVWAAGVITYILLCGFPPFRSENNLQEDLFDQILAGKLEFPAPYWDNITDSAKELISQMLQVNVEARCTAGEILSHPWVSDDASQENNMQAEVTGKLKQHFNNALPKQNSTTTGVSVIMNTALDKEGQIFCSKLCQDSSRPSREGHHHHHH | not soluble |
| SNAWIVPKNSVLFAMYGSIGETAINKIEVATNQAILGIIPKDNILESEFLYYILAKNKNYYSKLGMQTTQKNLNAQIVKSFKIPLPPLEEQKQIAKILTKI | not soluble |
| MTNKEKPIKHLVIDTCAIIANRNLHALADHYYAPPQILDELRSSAARKLWNTLPFEVTLREPTQTALRAVIDASKTTGDFQSLSMVDIKMIALTYDLHRQYVAENDVAETTEDDEKKNIEDLSAKVEQVTVGENTEDTKEEEIEENEESEDSAVSEGSESSESSESFDEDGWITQDNIEETLKKLGAFEIEENMLVGCLTTDFALQNVLLAMNLSLVSLSGYRIRKLKSFVLRCRTCFSTTSVMTKEFCPACGHKTLHKCAVSVDEDGNQQLHINWNRMANRRGLVYTLANPKGGKHATNERLFEDQPMPHMRMAKIHMDPLADGPFSVHDVTSRSAMLGVRTINNRAKQNRNPNESKRGGRRK | not soluble |
| MRLFILLSCLLAWVLAAPYIDQEDALRVLNAYLEQFGPGSDRVYYVAEDDHGSMKRGLGPRPLRFG | not soluble |
| MAHHHHHHMLLLLEREHPAVHAAVERILRGDSKIPVSVVRDFDGCEYHIRVEWDKEEKEMSQTSGVDSKDTGSGEVGTVNVGGTASVTVSLRSFTPFAELNTHGNFYEVLTTLFPSELQKFVVCDTHKGDGEDFTVAVHIPSNVPAKMLKEAMHSTAQLRAWSFVPAFARQFELFLTNPEVVQPLQLHYHDGEEMVVYNNRGSFIVAIALRVPSKDDAVLTRHFLQAMVEVRKHERSFCGSSAFIFEQGGPPDSVVAVTGPRGRVRDPNTFWCSFQLYKQQMEPPPRLVETVMHLVNFRTTLAYHIRAGRTYMHGIMRKRVESSLQWLNKAKARVAEETKITIT | not soluble |
| MGGSHHHHHHGMASMTGGQQMGRTLYDDDDKDRWGSMNYVIIGGDAAGMSAAMQIVRNDENANVVTLEKGEIYSYAQCGLPYVISGAIASTEKLIARNVKTFRDKYGIDAKVRHEVTKVDTEKKIVYAEHTKTKDVFEFSYDRLLIATGVRPVMPEWEGRDLQGVHLLKTIPDAERILKTLETNKVEDVTIIGGGAIGLEMAETFVELGKKVRMIERNDHIGTIYDGDMAEYIYKEADKHHIEILTNENVKAFKGNERVEAVETDKGTYKADLVLVSVGVKPNTDFLEGTNIRTNHKGAIEVNAYMQTNVQDVYAAGDCATHYHVIKEIHDHIPIGTTANKQGRLAGLNMLDKRRAFKGTLGTGIIKFMNLTLARTGLNEKEAKGLHIPYKTVKVDSTNMAGYYPNAKPLYLKLLYRSDTKQLLGGQVIGEEGVDKRIDVIAMALFNKMSIHDLEDVDLSYAPPYNSVWDPIQQAARRAE | soluble |
| MGSDKIHHHHHHMRMDHQLAERWIAPYSHVLDLGCGNGELLAHLQQNRGVTGYGLEIDEDKINEAIANGLSIVEQDLNDGLARFADNSFDTVVMARALQAVKSPDVLLLDMLRVAREAVITFPNFAHWQNRIHLGLKGIMPVSEALPYEWYNTPNIHLCTFKDFEKLCAQHDIHIINRFAVSDSEKGHSSLMTALIRRAPNLLADVAIYRVSKQKPE | not soluble |
| MGSDKIHHHHHHMADISIEQSMQLFELQPGKSLDLQINNPVSLRLKLPLIGYELGKYIILKYPKSANTSEYKDVLIEGNVLIVRYLMEGNKGECFAFRSSIKNITQYPEKFIFIEYPNKIENRQLRLQQRTSIHLPAIIMLESSGDNKKTQINGIIGDISAKGCGFTFKTKSTSTKVNKRDIFVCLRSPIDGEVQIPARVCNSRNDNGTVNVGIQFIDNEKLVPKLLSELFIENTMS | not soluble |
| MQEGLVVVESCPRLGWAMESPENGTRQTAYEIEIREAFTGRSVWNSGKVTSSQSQLVPTEGADICLNNPFNYSWRVRVWDETDTPSEWSQEAKFRLASDDLSSGKWIGAITRKDSHLPEGRKFHGGELKKPEVKAAWEAVDTLAKKSICLRRTFQTGEAKGKNANRKSGKKIVEATAYVCGLGFYEFSLNGKKIGDSEFAPLWSDYDKSVYYNTYDVTEQLQDGENVVGILLGNGFYNVQGGRYRKLQISFGPPTLLFELVINYEDGTRETIRSDHEWKYDLSPITFNCIYGGEDYDARREQKGWNQVGFNDSHWRPVVVQEAPKGVLRSQMAPPVKIMERYDIQKVTKLNSEQVMAASKSTKRTVDPSAVVLDMGQNLAGFPEITVRGKRGQKVTLIVAEALMDEGACNQRQTGRQHYYEYTLKGEGDEIWHPRFSYYGFRYIQVEGAVLKGQKNPQKLPVLKNIQSCFIYNSAKKVSTFESSNRIFNAAHRLIEKAVRSNMQSVFTDCPHREKLGWLEQVHLNGPGLLYNYDLTAYAPQIMQNMADAQHPNGAMPTTAPEYVVFEGPGMDAFAESPEWGGSLVIFPFMYYETYGDDSLIKKYYQHMRRYTDYLKTRADNGILSFGLGDWYDYGDFRAGFSRNTPVPLVATAHYYMTVMYLIKAARMVGNEFDVRYYSSLAYDIMVAFNKRFLDSNTAQYGTGSQASNALPIFLQMIQSTGDKGDYTPDASLAAKVLTNLIKDVESHGNRLTTGDVGNRYLIQTLARNGQHELIYKMFNHEEAPGYGFQLKFGATTLTEQWDPRQGSSWNHFMMGQIDEWFFNSLIGIRPSTTLSASVNEKDEPMQGYQKFVIAPKPVGDLKYVKSTYETLYGTILVDWTRQSGTFTLNVSVPVNTTAIVYLPGEKEPKEVQSGTYKFVAAE | not soluble |
| MGSDKIHHHHHHMSISEQCVIEIDKYIDYFKKNTSQPNILAKLFKTDSSYYVYDTGTNKVLTCGEYEYSILGKIIDNKFDEISRINDDADKSGFYEALENVRQAIEKEDILRGGKEWKFVSKGHFEELDKKLNYELDQITLELTEKCNLRCRYCIYNESYEHKRNFGNKDMPIEIAEKAIDYANLHSGKEKGVGVTFYGGEPLVNFKLLKHSIEYSRKVIKDKKLTFSLTSNLTLMTPEIATYLASIENLTILCSIDGPEEIHDSYRKDINGNGTFKRAIRGLKYLIEAFGDKANKAVMMNMVFTPPYSIEKVNKIETFINSLDWLPKGLRISMTYPSTGSVDDTPPKGCEKNYGMELIQWSESKYKSELKSDGKIDMFNEEFVVHPILRIHGRRISAKSESGYPVNGCCIPGSRKLYVTVDGNFQICERINGSPIIGNVFNGIDENKIKNEVIDEFINKSIKDCSRCWAARLCNVCYSHCYTDGKLDMKEKKRYCIRSRERALRSLVFYHKCAEINPEKLKYLNKIEVS | not soluble |
| GPGSMLLSVPEAHTEVITSLQFSPHHASVLCSTSGDDTAALWDLRNPSDSCNIARLTHHREPVNHALFIEESEPCLLTASDDRTIAYWDVREISQPVAVIRGFGDGINKMLRLPVSRRSGNACVNGGACCLIVSACDDGAVYIHDVALCGDTRRQSGMPVEGAGDTFSSTGNLVDRFMASTSTVNDLVLSPNPNLLLTASEDCAIRLWDIGPIFGGQRTQDERLVTSFDEFENPVNHIAVINSPRVTQFVQDEGQGGHSGCWLYAACSEFIFAVDLDPVSGALGEGARTLTGHQDYVRGLEFVGDDTLLTVSDDSTVIEWSLRTSNPVRQVKLHEGLVMASAVSAARDVLATGTDGGEMRVWRLPFLTE | not soluble |
| MKCKVYTVVVPNVQSATLLPIIREKVKPDSIVYTDTFRSYDVLDVSEFSHFRINHSTHFAENHNYINGIGNFWNHAKRHLQKFNGIPKEHFELYLKECEWRFNNSEIKSQISILKQLVKGSLVLEHHHHHH | not soluble |
| MGSDKIHHHHHHMAVTVENLTKRYGEKVALDNVSFDVKKGDILGIIGKSGAGKTTLIKILRGVESFDEGKIEVCGKTENLREITAIHLQRNFALWAEPAIYNIIRKLYAVRTDSDEGLPLEEEMEEYRKDATEILKLVGLEHKKDAYSNILSGGEKQRLILGRQLAKIYAKNGDGVLLLDEPATMACPASKQILLDVLKNINEKLGVTIIVTSHLPEIHKYLCKSCILIENGKIIMKDTPEKVVDEFLKDMVEAYDRLSKPTDKTVVEVEDASKRYYVVNGGETLNLKDISFKVKEKEILSILGPSGTGKSVILRLLAGLEAPDKGVVKLEGIDLKDFGWNRMNLRRKIGIMHQEFSLAHYLTVNELLKYRLGVKSIETVESAKLKAAELGISPKMVDGLYQLLDLPETEMRNKLDKIGISEMVVRKLFPAKPVEYDANELLEALDLNKETLNKKPTELSGGEKVRVAMALQLALEPDILLLDEPFGDLDPLTLREVSNYLKKINDTVGTTIILISHHVELIKEISDRAILIDEGKLLMNGNPEEICEKFIERSNSKFMNQ | not soluble |
| MEALGKTILASDDINSIKKNLAKHIVHLNEENEKYRNEIKLLKKNKDINNQILFTLNKTEISSDMIDSLFMQTKNVIIQVTNKKY | not soluble |
| GATNEVNVDAIKQLYMDCKNEADKFDVLTELYGLMTIGSSIIFVATKKTANVLYGKLKSEGHEVSILHGDLQTQERDRLIDDFREGRSKVLITTNVLARGIDIPTVSMVVNYDLPTLANGQADPATYIHRIGRTGRFGRKGVAISFVHDKNSFNILSAIQKYFGDIEMTRVPTDDWDEVEKIVKKVLKD | soluble |
